Molecular target: RGA5_S (RGA5 982-1116), small C-terminal fragment of RGA5 carrying the HMA domain (rice) (UniProt F7J0N2)
Test: SEC

Chain of UniProt F7J0N2 (F7J0N2 982-1116): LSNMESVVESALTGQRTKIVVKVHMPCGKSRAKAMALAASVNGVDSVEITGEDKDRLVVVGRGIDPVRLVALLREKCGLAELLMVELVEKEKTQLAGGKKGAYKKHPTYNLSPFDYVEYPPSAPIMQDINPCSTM

“dSP-AVR1-CO39 (AVR1-CO39 with its signal peptide deleted), wild type, recombinant (natural protein)” showed a stoichiometry N of 1.
